The values below come from US20230287402A1 (University of Washington, published 2023).

In the experiment the target is T1, Di13_B2L2B4, cyclic pseudo-dihedral B component (construct number 2 of Table 3).
T1 construct: also called cyclic B
The experiment in a line: negative stain TEM, unlabelled construct.

B1: A component of design #13 (D3 homooligomer, designed from 1d2t) (designed binder)
chain: MGHHHHHHGGLALVATGNDTTTKPDLYYLKNSEAINSLALLPPPPAVGSIAFLNDQAMYEQGRLLRNTERGKLAAEDANLSSGGVANAFSGAFGSPITEKDAPALHKLLTNMIEDAGDLATRSAKDHYMRIRPFAFYGVSTCNTTEQDKLSKNGSYPSGHTSIGWATALVLAEINPQRQNEILKRGYELGQSRVICGYHWQSDVDAARVVGSAVVATLHTNPEFQAQLIKAKIEFKQHQKEL
notes: also called component A; dihedral A
As to B1, the binding result was “binds”.
